One experiment deals with JNK (Homo sapiens) (UniProt P45983). Particulars: cited from earlier work.
The next experiment concerns the target GST-JNK1α1 (UniProt P45983). In words: pull-down; GST-JNK isoform (2 μg) or unfused GST on glutathione beads, rotated 1 h at +4 °C with cleared 293T lysate holding the luciferase fusion (7,000 units), low-salt buffer with 0.5% Igepal, washed three times; luciferase on beads as per cent of input.

A word on the Kd: it is the constant that tells how readily two partners part at equilibrium.

With JIP peptide (from UniProt Q9UQF2), in the experiment with JNK (Homo sapiens), the Kd is 800 nM.

With “luciferase-fused OptoJNKi.lsm (AsLOV2Jα I539E-JIP11) (from UniProt Q9UQF2 157-167) (designed binder)”, the ratio of pulldown, lit-state mutant against dark-state mutant with GST-JNK1α1 stood at 30 fold.

Values taken from paper PMC5437309.
